Earlier results, collected in patent US20240277840A1, “SUPERCONCENTRATED FORMULATIONS OF BIOACTIVE AGENTS” (UPKARA, INC., priority 2021, published 2024).

Conditions: intraperitoneal (IP) administration, preclinical

catumaxomab
local concentration of the antibody in the ascites fluid: high local concentrations
systemic exposure, detectable in plasma: < 5%
